Results: article PMC12176259, “Bacterial transcriptional repressor NrdR – a flexible multifactorial nucleotide sensor” (The Febs Journal, 2024)
Where “and” joins values, the source holds several entries; their conditions need not be identical. Identical values can stand only once.

B1: Escherichia coli NrdR (natural protein, E. coli K‐12 strain MG1655)
chain: MHCPFCFAVDTKVIDSRLVGEGSSVRRRRQCLVCNERFTTFEVAELVMPRVVKSNDVREPFNEEKLRSGMLRALEKRPVSSDDVEMAINHIKSQLRATGEREVPSKMIGNLVMEQLKKLDKVAYIRFASVYRSFEDIKEFGEEIARLED
notes: Transcriptional repressor NrdR of E. coli K‐12 strain MG1655, wild type (NP_414947.1); The oligomeric state depends on the loaded nucleotides (apo: dimer); ATP‐dATP, ADP‐dATP, ADP, AMP‐dAMP: tetramer; also called EcoNrdR; E. coli NrdR; source: E. coli BL21(DE3), purified (HisTrap FF Ni‐Sepharose, desalting)
B2: Selenomethionine‐derivatized Escherichia coli NrdR (natural protein, E. coli K‐12 strain MG1655)
chain: B1 chain
modifications: selenomethionine in place of methionine
notes: Transcriptional repressor NrdR of E. coli K‐12 strain MG1655, wild type (NP_414947.1), from the same plasmid pET30a(+)::nrdR as m1; Same construct as m1, made in a methionine auxotroph with seleno‐L‐methionine; also called SeMet‐EcoNrdR; Se‐Met substituted EcoNrdR; source: E. coli B834 (DE3) in SelenoMet Minimal Media, purified

Assays:
[1] = target: the molecule itself; assay: SEC; Superdex 200 PC 3.2/30, 4–8 °C, Tris–HCl pH 9.0, 300 mM NaCl; ATP‐loaded NrdR (0.1 mM ATP), low MgCl2 (0.1–0.2 mM); 17–55 μM NrdR
[2] = target: the molecule itself; assay: SEC; Superdex 200 PC 3.2/30, 4–8 °C, Tris–HCl pH 9.0, 300 mM NaCl; NrdR pre‐incubated with AMP and dAMP
[3] = target: the molecule itself; assay: SEC; Superdex 200 PC 3.2/30, 4–8 °C, Tris–HCl pH 9.0, 300 mM NaCl; NrdR pre‐incubated with ADP and dATP, nucleotides in the SEC buffer; 10–90 μM NrdR
[4] = target: the molecule itself; assay: SEC; Superdex 200 PC 3.2/30, 4–8 °C, Tris–HCl pH 9.0, 300 mM NaCl; NrdR with 0.2 mM ADP and 0.2 mM MgCl2
[5] = target: the molecule itself; assay: SEC; Superdex 200 PC 3.2/30, 4–8 °C, 25 or 50 mM Tris–HCl pH 9.0, 300 mM NaCl; 55 μM apo‐NrdR, no nucleotide effectors
[6] = target: the molecule itself; assay: SEC; Superdex 200 PC 3.2/30, 4–8 °C, Tris–HCl pH 9.0, 300 mM NaCl; ATP‐loaded NrdR, excess MgCl2 (1 mM or higher); elutes in the void volume
[7] = target: the molecule itself; assay: SEC; Superdex 200 PC 3.2/30, 4–8 °C, Tris–HCl pH 9.0, 300 mM NaCl; NrdR pre‐incubated with ATP and dATP, nucleotides in the SEC buffer; 7–55 μM NrdR
[8] = target: the molecule itself; assay: SEC; ATP‐dATP‐loaded NrdR at high protein concentrations (440–550 μM)
[9] = target: the molecule itself; assay: crystal structure; SeMet‐EcoNrdR with ATP and dATP, 10 mg/mL; 0.1 M HEPES pH 7.5, 0.2 M MgCl2, 12.5% PEG 3350, 20 °C; one tetramer in the asymmetric unit

Protein | stoichiometry N [1] [subunits] | stoichiometry N [2] [subunits] | stoichiometry N [3] [subunits] | stoichiometry N [4] [subunits] | stoichiometry N [5] [subunits] | stoichiometry N [6] [subunits] | stoichiometry N [7] [subunits] | stoichiometry N [8] | binding result [9]
B1 | 12.1 | 4.8 | 4.8 | 4.5 | 2.1 | > 33 | 4.5 | 8 subunits and 16 subunits | –
B2 | – | – | – | – | – | – | – | – | binds
